Measured values: patent publication US20190194326A1 (UBI US, published 2019)

Molecular target: human CD4, membrane-bound on the surface of cells (human, UniProt P01730 26-458)
Test: cell-based or functional assay

B1: murine monoclonal antibody B4 (mAb B4) (antibody, V domains shown)
VH: QVQLQQSGPELVKPGASVRMSCKASGYTFTDYVIHWVKQRTGQGLEWIGEIYPGSGSAYSNAKFKDKATLTADKSSNTAYMQLSSLTSEDSAVYFCARRGNGTGFAYWGQGTLVTVSA
VL: DIVLTQSPASLAVSLGQRATISCKAGQSVDYDGDSYMNWYQQKPGQPPKLLIYVASNLESGIPARFSGSGSGTDFTLNIHPVEEEDAATYYCQQSYKDPLTFGAGTKLELK
With B1 the “IC50, HIV entry inhibition (PhenoSense), control virus 92HT594” value was 0.021 µg/mL, the “IC50, HIV entry inhibition (PhenoSense), control virus JRCSF” value was 0.034 µg/mL and the “IC50, HIV entry inhibition (PhenoSense), control virus JRFL” value was 0.074 µg/mL. The “IC50, HIV entry inhibition (PhenoSense), isolate 92/RW/008, clade A” value was 0.026 µg/mL, the “IC50, HIV entry inhibition (PhenoSense), isolate 92/RW/024, clade A” value was 0.055 µg/mL and the “IC50, HIV entry inhibition (PhenoSense), isolate 92/TH/005, clade EA” value was 0.012 µg/mL. For the same binder, the “IC50, HIV entry inhibition (PhenoSense), isolate 92/TH/006, clade EA” value was 0.022 µg/mL, the “IC50, HIV entry inhibition (PhenoSense), isolate 92/TH/007, clade EA” value was 0.013 µg/mL and the “IC50, HIV entry inhibition (PhenoSense), isolate 92/TH/009, clade EA” value was 0.021 µg/mL. For the same binder, the “IC50, HIV entry inhibition (PhenoSense), isolate 92/TH/019, clade EA” value was 0.022 µg/mL, the “IC50, HIV entry inhibition (PhenoSense), isolate 92/TH/020, clade EA” value was 0.015 µg/mL and the “IC50, HIV entry inhibition (PhenoSense), isolate 92/TH/021, clade EA” value was 0.017 µg/mL. For the same binder, the “IC50, HIV entry inhibition (PhenoSense), isolate 92/TH/022, clade EA” value was 0.012 µg/mL, the “IC50, HIV entry inhibition (PhenoSense), isolate 92/TH/024, clade EA” value was 0.01 µg/mL and the “IC50, HIV entry inhibition (PhenoSense), isolate 92/UG/001, clade D” value was 0.018 µg/mL. The “IC50, HIV entry inhibition (PhenoSense), isolate 92/UG/005, clade D” value was 0.019 µg/mL, the “IC50, HIV entry inhibition (PhenoSense), isolate 92/UG/021, clade D” value was 0.017 µg/mL and the “IC50, HIV entry inhibition (PhenoSense), isolate 92/UG/024, clade D” value was 0.04 µg/mL. For the same binder, the “IC50, HIV entry inhibition (PhenoSense), isolate 92/UG/035, clade D” value was 0.011 µg/mL, the “IC50, HIV entry inhibition (PhenoSense), isolate 92/UG/038, clade D” value was 0.014 µg/mL and the “IC50, HIV entry inhibition (PhenoSense), isolate 92/UG/046, clade D” value was 0.015 µg/mL. The “IC50, HIV entry inhibition (PhenoSense), isolate 92/UG/053, clade D” value was 0.02 µg/mL, the “IC50, HIV entry inhibition (PhenoSense), isolate 92/UG/065, clade D” value was 0.015 µg/mL and the “IC50, HIV entry inhibition (PhenoSense), isolate 93/BR/019, clade BF” value was 0.013 µg/mL. The “IC50, HIV entry inhibition (PhenoSense), isolate 93/BR/020, clade F” value was 0.024 µg/mL, the “IC50, HIV entry inhibition (PhenoSense), isolate 93/IN/101, clade C” value was 0.016 µg/mL and the “IC50, HIV entry inhibition (PhenoSense), isolate 93/RW/029, clade A” value was 0.019 µg/mL. For the same binder, the “IC50, HIV entry inhibition (PhenoSense), isolate 93/TH/057, clade E” value was 0.023 µg/mL, the “IC50, HIV entry inhibition (PhenoSense), isolate 93/TH/305, clade E” value was 0.021 µg/mL and the “IC50, HIV entry inhibition (PhenoSense), isolate 93/UG/067, clade D” value was 0.016 µg/mL. For the same binder, the “IC50, HIV entry inhibition (PhenoSense), isolate 93/UG/070, clade D” value was 0.011 µg/mL, the “IC50, HIV entry inhibition (PhenoSense), isolate 93/UG/077, clade A” value was 0.012 µg/mL and the “IC50, HIV entry inhibition (PhenoSense), isolate 93/UG/082, clade D” value was 0.016 µg/mL. The “IC50, HIV entry inhibition (PhenoSense), isolate 93/UG/086, clade D” value was 0.015 µg/mL, the “IC50, HIV entry inhibition (PhenoSense), isolate 94/UG/103, clade A” value was 0.021 µg/mL and the “IC50, HIV entry inhibition (PhenoSense), isolate 94/UG/105, clade D” value was 0.021 µg/mL. For the same binder, the “IC50, HIV entry inhibition (PhenoSense), isolate 94/UG/114, clade D” value was 0.015 µg/mL, the “IC50, HIV entry inhibition (PhenoSense), isolate 94/UG/117, clade D” value was 0.017 µg/mL and the “IC50, HIV entry inhibition (PhenoSense), isolate 94/UG/118, clade D” value was 0.02 µg/mL. The “IC50, HIV entry inhibition (PhenoSense), isolate 10215-6, clade C” value was 0.018 µg/mL, the “IC50, HIV entry inhibition (PhenoSense), isolate 10362, clade C” value was 0.02 µg/mL and the “IC50, HIV entry inhibition (PhenoSense), isolate 11657-3, clade C” value was 0.025 µg/mL. For the same binder, the “IC50, HIV entry inhibition (PhenoSense), isolate 20635-4, clade C” value was 0.02 µg/mL, the “IC50, HIV entry inhibition (PhenoSense), isolate 21068, clade C” value was 0.011 µg/mL and the “IC50, HIV entry inhibition (PhenoSense), isolate CA1, clade A” value was 0.011 µg/mL. For the same binder, the “IC50, HIV entry inhibition (PhenoSense), isolate CA2, clade A” value was 0.018 µg/mL, the “IC50, HIV entry inhibition (PhenoSense), isolate CA3, clade A” value was 0.019 µg/mL and the “IC50, HIV entry inhibition (PhenoSense), isolate CC1, clade C” value was 0.016 µg/mL. The “IC50, HIV entry inhibition (PhenoSense), isolate CC2, clade C” value was 0.021 µg/mL, the “IC50, HIV entry inhibition (PhenoSense), isolate CC3, clade C” value was 0.012 µg/mL and the “IC50, HIV entry inhibition (PhenoSense), isolate CC4, clade C” value was 0.013 µg/mL. The “IC50, HIV entry inhibition (PhenoSense), isolate CC5, clade C” value was 0.019 µg/mL, the “IC50, HIV entry inhibition (PhenoSense), isolate CC6, clade C” value was 0.018 µg/mL and the “IC50, HIV entry inhibition (PhenoSense), isolate CC7, clade C” value was 0.013 µg/mL. The “IC50, HIV entry inhibition (PhenoSense), isolate CC8, clade C” value was 0.019 µg/mL, the “IC50, HIV entry inhibition (PhenoSense), isolate CC9, clade C” value was 0.02 µg/mL and the “IC50, HIV entry inhibition (PhenoSense), isolate CC10, clade C” value was 0.015 µg/mL. The “IC50, HIV entry inhibition (PhenoSense), isolate CD1, clade D” value was 0.016 µg/mL, the “IC50, HIV entry inhibition (PhenoSense), isolate CF2, clade F” value was 0.016 µg/mL and the “IC50, HIV entry inhibition (PhenoSense), isolate CF3, clade F” value was 0.024 µg/mL. The “IC50, HIV entry inhibition (PhenoSense), isolate CF4, clade F” value was 0.019 µg/mL, the “IC50, HIV entry inhibition (PhenoSense), isolate CF5, clade F” value was 0.018 µg/mL and the “IC50, HIV entry inhibition (PhenoSense), isolate CF6, clade F” value was 0.018 µg/mL. For the same binder, the “IC50, HIV entry inhibition (PhenoSense), isolate CF7, clade F” value was 0.019 µg/mL, the “IC50, HIV entry inhibition (PhenoSense), isolate CF8, clade F” value was 0.017 µg/mL and the “IC50, HIV entry inhibition (PhenoSense), isolate CG1, clade G” value was 0.018 µg/mL. For the same binder, the “IC50, HIV entry inhibition (PhenoSense), isolate CG2, clade G” value was 0.027 µg/mL, the “IC50, HIV entry inhibition (PhenoSense), isolate CG3, clade G” value was 0.016 µg/mL and the “IC50, HIV entry inhibition (PhenoSense), isolate CG4, clade G” value was 0.013 µg/mL. The “IC50, HIV entry inhibition (PhenoSense), isolate CJ1, clade J” value was 0.018 µg/mL, the “IC50, HIV entry inhibition (PhenoSense), isolate CJ2, clade J” value was 0.019 µg/mL and the “IC50, HIV entry inhibition (PhenoSense), isolate CMU02, clade EA” value was 0.011 µg/mL. The “IC50, HIV entry inhibition (PhenoSense), isolate CMU06, clade E” value was 0.026 µg/mL, the “IC50, HIV entry inhibition (PhenoSense), isolate MW/93/959, clade C” value was 0.019 µg/mL and the “IC50, HIV entry inhibition (PhenoSense), isolate MW/93/960, clade C” value was 0.01 µg/mL. For the same binder, the “IC50, HIV entry inhibition (PhenoSense), isolate QZ4589, clade E?” value was 0.036 µg/mL and the “average IC50, HIV entry inhibition (PhenoSense), all viruses of the table” value was 0.018 µg/mL.
